Data taken from patent US5238825A, “Preparation and use of a cyclodextrinase for preparing maltooligosaccharides” (Kikkoman Corporation, priority 1989, dated 1993).

Legend:
Details in all cases: other: substrate of Bacillus sphaericus cyclodextrinase; pH 7.5; 40.0 °C
[1] = substrate: OC[C@H]1O[C@H](O[C@H]2[C@H](O)[C@@H](O)[C@@H](O[C@H]3[C@H](O)[C@@H](O)[C@@H](O[C@H]4[C@H](O)[C@@H](O)[C@@H](O[C@H]5[C@H](O)[C@@H](O)[C@@H](O[C@H]6[C@H](O)[C@@H](O)C(O)O[C@@H]6CO)O[C@@H]5CO)O[C@@H]4CO)O[C@@H]3CO)O[C@@H]2CO)[C@H](O)[C@@H](O)[C@@H]1O; experiment: purified protein, by the assay type
[2] = substrate: OC[C@H]1O[C@H](O[C@H]2[C@H](O)[C@@H](O)[C@@H](O[C@H]3[C@H](O)[C@@H](O)[C@@H](O[C@H]4[C@H](O)[C@@H](O)C(O)O[C@@H]4CO)O[C@@H]3CO)O[C@@H]2CO)[C@H](O)[C@@H](O)[C@@H]1O; experiment: purified protein, by the assay type
[3] = substrate: OC[C@H]1O[C@@H]2O[C@H]3[C@H](O)[C@@H](O)[C@@H](O[C@H]4[C@H](O)[C@@H](O)[C@@H](O[C@H]5[C@H](O)[C@@H](O)[C@@H](O[C@H]6[C@H](O)[C@@H](O)[C@@H](O[C@H]7[C@H](O)[C@@H](O)[C@@H](O[C@H]8[C@H](O)[C@@H](O)[C@@H](O[C@H]1[C@H](O)[C@H]2O)O[C@@H]8CO)O[C@@H]7CO)O[C@@H]6CO)O[C@@H]5CO)O[C@@H]4CO)O[C@@H]3CO; experiment: purified protein, by the assay type
[4] = substrate: OC[C@H]1O[C@@H]2O[C@H]3[C@H](O)[C@@H](O)[C@@H](O[C@H]4[C@H](O)[C@@H](O)[C@@H](O[C@H]5[C@H](O)[C@@H](O)[C@@H](O[C@H]6[C@H](O)[C@@H](O)[C@@H](O[C@H]7[C@H](O)[C@@H](O)[C@@H](O[C@H]8[C@H](O)[C@@H](O)[C@@H](O[C@H]9[C@H](O)[C@@H](O)[C@@H](O[C@H]1[C@H](O)[C@H]2O)O[C@@H]9CO)O[C@@H]8CO)O[C@@H]7CO)O[C@@H]6CO)O[C@@H]5CO)O[C@@H]4CO)O[C@@H]3CO; experiment: purified protein, by the assay type
[5] = substrate: OC[C@H]1O[C@H](O[C@H]2[C@H](O)[C@@H](O)[C@@H](O[C@H]3[C@H](O)[C@@H](O)[C@@H](O[C@H]4[C@H](O)[C@@H](O)[C@@H](O[C@H]5[C@H](O)[C@@H](O)C(O)O[C@@H]5CO)O[C@@H]4CO)O[C@@H]3CO)O[C@@H]2CO)[C@H](O)[C@@H](O)[C@@H]1O; experiment: Reaction rate parameters of the present enzyme for cyclodextrins and maltooligosaccharides; type: biochemical
Method: (§1) When the amount of the enzyme was small, the reducing power of the enzyme was determined according to Nelson-Somogyi's method, with glucose as standard.

[6] = substrate: OC[C@H]1O[C@@H]2O[C@H]3[C@H](O)[C@@H](O)[C@@H](O[C@H]4[C@H](O)[C@@H](O)[C@@H](O[C@H]5[C@H](O)[C@@H](O)[C@@H](O[C@H]6[C@H](O)[C@@H](O)[C@@H](O[C@H]7[C@H](O)[C@@H](O)[C@@H](O[C@H]1[C@H](O)[C@H]2O)O[C@@H]7CO)O[C@@H]6CO)O[C@@H]5CO)O[C@@H]4CO)O[C@@H]3CO; experiment: as above; type: biochemical
Method: as §1

[7] = substrate: OC[C@H]1O[C@H](O[C@H]2[C@H](O)[C@@H](O)[C@@H](O[C@H]3[C@H](O)[C@@H](O)[C@@H](O[C@H]4[C@H](O)[C@@H](O)[C@@H](O[C@H]5[C@H](O)[C@@H](O)[C@@H](O[C@H]6[C@H](O)[C@@H](O)[C@@H](O[C@H]7[C@H](O)[C@@H](O)C(O)O[C@@H]7CO)O[C@@H]6CO)O[C@@H]5CO)O[C@@H]4CO)O[C@@H]3CO)O[C@@H]2CO)[C@H](O)[C@@H](O)[C@@H]1O; experiment: as above; type: biochemical
Method: as §1

B1: cyclodextrinase (Lysinibacillus sphaericus) (protein)
chain: MIMLEAVYHRMGQNWSYAYNDSTLHIRIRTKRDNVPRIDLHCGEKYDPEKYKETIPMERMASDGLFDYWQAAVQPRYRRLVYYFALHSDNGDAVYFMEKGFFDQPPKVMYEGLFDFPYLNRQDVHTPPAWVKEAIFYQIFPERFANGDPSNDPEGVQEWGGTPSAGNFFGGDLQGVIDHLDYLSDLGVNALYFNPLFAATTNHKYDTADYMKIDPQFGTNEKLKELVDACHARGMRVLLDAVFNHCGHTFPPFVDVLNNGLNSRYADWFHVREWPLRVVDGIPTYDTFAFEPIMPKLNTGNEEVKAYLLNVGRYWLEEMGLDGWRLDVANEVDHQFWREFRSEIKRINPSAYILGEIMHDSMPWLQGDQFDAVMNYPFTNILLNFFARRLTNAAEFAQAIGTQLAGYPQQVTEVSFNLLGSHDTTRLLTLCSGNVERMKLATLFQLTYQGTPCIYYGDEIGMDGEYDPLNRKCMEWDKSKQNTELLAFFRSMISLRKAHPALRGSGLRFLPVLEHPQLLVYERWDDNERFLIMLNNEDAPVNVVIPAAQPGASWRTVNGEPCAVVEESSIQAALPPYGYAILHAPIAGTAE
notes: is cultured in a medium to yield and accumulate said cyclodextrinase, and this enzyme is collected from the culture; made in house; host or cells: Bacillus sphaericus E-244 (FERM BP-2458), the natural wild-type producer strain; not recombinant
- Km [1]: 1.11 mM
- Km [2]: 1540 µM
- Km [3]: 0.38 mM
- Km [4]: 1430 µM
- Km [5]: 950 µM
- Km [6]: 0.71 mM
- Km [7]: 0.69 mM
